In article PMC10397247:
Read-outs that look alike come from different tables or passages of the source.

T1: P2-AA-12HGe-A
T1 chain: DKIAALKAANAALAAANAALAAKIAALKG

T2: P2-AA-12HGe-D
T2 chain: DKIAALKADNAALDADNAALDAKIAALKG

T3: P2-AA-12HGe-E
T3 chain: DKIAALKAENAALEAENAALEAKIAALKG

T4: P2-AA-12HGe-H
T4 chain: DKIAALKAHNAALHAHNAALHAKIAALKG

T5: P2-AA-12HGe-M
T5 chain: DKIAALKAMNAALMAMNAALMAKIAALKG

T6: P2-AA-12HGe-Q
T6 chain: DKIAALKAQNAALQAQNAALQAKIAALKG

T7: P2-AA-12HGe-R
T7 chain: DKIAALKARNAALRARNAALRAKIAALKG

T8: P2-AA-12HGe-S
T8 chain: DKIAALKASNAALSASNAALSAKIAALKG

T9: P2-AA-12HGe-T
T9 chain: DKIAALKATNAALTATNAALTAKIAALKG

T10: P2-AA-12HGe-W
T10 chain: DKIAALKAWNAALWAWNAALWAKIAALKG

T11: P2-AA
T11 chain: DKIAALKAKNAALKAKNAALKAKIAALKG

T12: AP5-AA
T12 chain: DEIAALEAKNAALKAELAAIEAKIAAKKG

T13: AP6-AA
T13 chain: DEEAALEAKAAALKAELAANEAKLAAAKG

T14: AP7-AA
T14 chain: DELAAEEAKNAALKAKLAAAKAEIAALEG

T15: AP8-AA
T15 chain: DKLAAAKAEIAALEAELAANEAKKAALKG

T16: P1-AA
T16 chain: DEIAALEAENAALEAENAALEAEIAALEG

T17: P10-AA
T17 chain: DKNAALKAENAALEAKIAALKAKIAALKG

T18: P11-AA
T18 chain: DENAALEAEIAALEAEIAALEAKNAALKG

T19: P12-AA
T19 chain: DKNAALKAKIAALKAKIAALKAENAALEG

T20: P3-AA
T20 chain: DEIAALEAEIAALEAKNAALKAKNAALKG

T21: P4-AA
T21 chain: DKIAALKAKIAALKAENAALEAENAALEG

T22: P7-AA
T22 chain: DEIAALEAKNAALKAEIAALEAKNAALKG

T23: P8-AA
T23 chain: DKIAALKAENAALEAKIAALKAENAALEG

T24: P9-AA
T24 chain: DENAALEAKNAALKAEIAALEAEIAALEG


What was measured:
Test in all cases: two-hybrid library CCmax;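 note: natural log of median RNA to DNA barcode read ratio; higher means stronger binding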
P2-AA-12HGe-A = biological target: T1, P2-AA-12HGe-A; conditions: mean of both orientations
P2-AA-12HGe-D = biological target: T2, P2-AA-12HGe-D
P2-AA-12HGe-E = biological target: T3, P2-AA-12HGe-E; conditions: mean of both orientations
P2-AA-12HGe-H = biological target: T4, P2-AA-12HGe-H; conditions: mean of both orientations
P2-AA-12HGe-M = biological target: T5, P2-AA-12HGe-M; conditions: mean of both orientations
P2-AA-12HGe-Q = biological target: T6, P2-AA-12HGe-Q; conditions: mean of both orientations
P2-AA-12HGe-R = biological target: T7, P2-AA-12HGe-R; conditions: mean of both orientations
P2-AA-12HGe-S = biological target: T8, P2-AA-12HGe-S
P2-AA-12HGe-T = biological target: T9, P2-AA-12HGe-T; conditions: mean of both orientations
P2-AA-12HGe-W = biological target: T10, P2-AA-12HGe-W; conditions: mean of both orientations
P2-AA = biological target: T11, P2-AA; conditions: mean of both orientations
AP5-AA = biological target: T12, AP5-AA
AP6-AA = biological target: T13, AP6-AA; conditions: mean of both orientations
AP7-AA = biological target: T14, AP7-AA; conditions: mean of both orientations
AP8-AA = biological target: T15, AP8-AA; conditions: mean of both orientations
GCN2_T = biological target: GCN2_T
P1-AA = biological target: T16, P1-AA; conditions: mean of both orientations
P10-AA = biological target: T17, P10-AA; conditions: mean of both orientations
P11-AA = biological target: T18, P11-AA; conditions: mean of both orientations
P12-AA = biological target: T19, P12-AA; conditions: mean of both orientations
P3-AA = biological target: T20, P3-AA; conditions: mean of both orientations
P4-AA = biological target: T21, P4-AA; conditions: mean of both orientations
P7-AA = biological target: T22, P7-AA; conditions: mean of both orientations
P8-AA = biological target: T23, P8-AA; conditions: mean of both orientations
P9-AA = biological target: T24, P9-AA; conditions: mean of both orientations

Row | Binder | interaction score (P2-AA-12HGe-A) | interaction score (P2-AA-12HGe-D; mean of both orientations) | interaction score (P2-AA-12HGe-E) | interaction score (P2-AA-12HGe-H) | interaction score (P2-AA-12HGe-M) | interaction score (P2-AA-12HGe-Q) | interaction score (P2-AA-12HGe-R) | interaction score (P2-AA-12HGe-T) | interaction score (P2-AA-12HGe-W) | interaction score (P2-AA) | interaction score (P2-AA-12HGe-S; mean of both orientations) | other results
1 | DEIAALEAANAALAAANAALAAEIAALEG [P1-AA-12HGe-A] | 1.6 | -1.64 | 1.62 | 0.332 | 1.4 | 1.96 | 0.662 | 1.71 | 0.0222 | 1.49 | – | interaction score (P2-AA-12HGe-S): -0.384
2 | DEIAALEAHNAALHAHNAALHAEIAALEG [P1-AA-12HGe-H] | 0.105 | -1.6 | 2 | -1.82 | -0.622 | 0.16 | -1.54 | -1.51 | -1.45 | -1.14 | -1.37 | –
3 | DEIAALEAYNAALYAYNAALYAEIAALEG [P1-AA-12HGe-Y] | -0.289 | -1.65 | 2.36 | -1.21 | 1.77 | 0.637 | -0.521 | -0.661 | -0.349 | -0.194 | -1.06 | –
4 | DEIAALEAQNAALQAQNAALQAEIAALEG [P1-AA-12HGe-Q] | 1.99 | -1.92 | 2.09 | 0.459 | 1.64 | 1.8 | 1.56 | 1.03 | -0.264 | 1.92 | 0.227 | –
5 | DEIAALEAKNAALKAKNAALKAEIAALEG [P1-AA-12HGe-K] | 1.6 | 0.189 | 2.31 | -1.62 | 0.464 | 1.06 | -1.01 | -0.493 | -2.11 | -0.289 | 0.655 | –
6 | DEIAALEAKNAALKAELAAIEAKIAAKKG [AP5-AA] | – | – | – | – | – | – | – | – | – | -1.24 | – | interaction score (AP5-AA): -0.918; interaction score (AP6-AA): 1.53; interaction score (AP7-AA): -1.69; interaction score (AP8-AA): -1.08; interaction score (GCN2_T): -0.794; interaction score (P1-AA): -1.35; interaction score (P10-AA): 1.37; interaction score (P11-AA): -0.907; interaction score (P12-AA): -1.41; interaction score (P3-AA): -1.62; interaction score (P4-AA): -0.912; interaction score (P7-AA): -0.672; interaction score (P8-AA): 2.11; interaction score (P9-AA): -0.644
7 | DEIAALEARNAALRARNAALRAEIAALEG [P1-AA-12HGe-R] | 1.68 | 1.05 | 2.08 | -0.986 | -0.0699 | 1.28 | -0.893 | 0.3 | -1.15 | -0.71 | 1.19 | –
8 | DEIAALEASNAALSASNAALSAEIAALEG [P1-AA-12HGe-S] | -0.678 | – | 0.07 | -1.82 | -0.332 | 0.702 | 1 | -1.11 | -1.58 | 0.744 | -1.39 | interaction score (P2-AA-12HGe-D): -1.82
9 | DEIAALEATNAALTATNAALTAEIAALEG [P1-AA-12HGe-T] | 0.941 | -1.6 | 1.26 | -1.51 | -0.103 | 0.761 | -0.61 | -0.824 | -1.56 | -0.397 | -0.683 | –
10 | DEIAALEAMNAALMAMNAALMAEIAALEG [P1-AA-12HGe-M] | 1.71 | -1.52 | 2.2 | 0.866 | 1.82 | 2.16 | 1.45 | 1.77 | 0.93 | 1.39 | 1.02 | –
11 | DEIAALEADNAALDADNAALDAEIAALEG [P1-AA-12HGe-D] | -2.7 | -1.75 | -1.55 | -1.41 | -2.19 | -1.62 | 1.33 | -1.52 | -2.14 | 1.36 | -1.99 | –
12 | DEIAALEAWNAALWAWNAALWAEIAALEG [P1-AA-12HGe-W] | 1.75 | -1.76 | 1.5 | -1.02 | 0.936 | 1.69 | 0.108 | -0.385 | -0.0819 | -1.08 | -0.243 | –
